# In patent publication US9885713B2, “Diagnosis and treatment of mycobacteria infections” (priority 2013, dated 2018):
# Entries after “also recorded” stand apart in the source; their conditions may differ.
# Columns and labels:
# [1] = test system: Mycobacterium avium subsp. paratuberculosis ATCC 19851; test: Cell binding assay: protein immobilized on gold surface, capture by SEM and fluorescence microscopy; details: for capture/binding of MAP cells (in words): protein immobilized on gold surface, 20 μg/ml (Gp6 also 40 μg/ml)
# Description: (§1) In order to assess mycophage and mycophage RBPs for their use as probes of MAP infection, Gp-10 and Gp-6 were immobilized using an established protocol (Singh et. al. Biosens. Bioelect. 26 131 (2010) and used for the specific bacterial capture. Gold Surfaces were modified by cysteamine hydrochloride followed by activation using 2% gluteraldehyde. The recombinant proteins Gp-10, Gp-6 and Gp-31 were immobilized over the surfaces in order to capture the host bacteria Mycobacterium avium subsp. paratuberculosis ATCC 19851 and Mycobacterium smegmatis mc^2155. Bacterial capture was confirmed by fluorescence microscopy and Scanning Electron Microscopy (SEM). Nonspecific attachment was prevented by using bovine serum albumin (BSA) as the blocking layer. A negative control was run in parallel where a similar gold surface was treated with all reagents, but they were not exposed to the recombinant phage proteins.
# (§2) Proteins were immobilized onto cysteamine covered gold surfaces that were activated with glutaraldehyde according to the previously described protocol where RBP samples were used instead of whole phage particles. Briefly, the gold substrates were fabricated using piranha cleaned silicon substrates by sputtering a 25 nm thick gold layer. The gold substrates were sonicated in acetone, isopropanol, ethanol and MilliQ (Millipore) water for 5 min each prior to their use (Branson Ultrasonics 1510, 40 kHz frequency). The gold substrates were incubated overnight at 40° C. in a 50 mM solution of cysteamine hydrochloride (Sigma-Aldrich). The cysteamine self assembled monolayer (SAM) substrates were modified by 2% glutaraldehyde (Sigma-Aldrich) for 1 hr at room temperature and washed twice in PBS. These modified substrates were incubated in a 20 μg/ml solution of Gp10 (or Gp6) in PBS overnight at 60° C. The negative control substrate was incubated in PBS only. To block nonspecific binding of bacteria, the substrates were incubated in 1 mg/ml of bovine serum albumin (Sigma-Aldrich) and were washed twice in PBS. The protein covered substrates were exposed to 10^9 cfu/ml of mycobacterial cells in PBS for 1 hr at room temperature. The immobilized surfaces were washed in 0.05 Tween 20 (Sigma-Aldrich) before analysis. For fluorescence microscopy, the bacterial cells were stained with 50 μM resazurin (Sigma-Aldrich) for 20 min before exposure to the substrates covered with the immobilized proteins.
# (§3) Bacterial cell binding to the gold surface covered with the immobilized protein was assessed as described previously. Scanning electron microscopy (SEM) and fluorescent microscopy (FM) were used to estimate the number of bacterial cells bound to the surfaces. The samples were fixed with 2% glutaraldehyde for 2 hrs at room temperature followed by a gradient of ethanol from 50% to 100% before SEM. Finally the samples were dried by nitrogen gas. SEM imaging was performed using a Hitachi S-4800/LEO 1430 microscope. Cells were prestained using 50 μM of resazurin stain (Sigma-Aldrich) for the FM-based binding assay. An Olympus IX81 microscope equipped with a FITC filter and a Roper Scientific Cool-Snaps HQ CCD Camera were Used to Record the FM Images. ImageJ Software (USA NIH) was used to analyze the microscopy images. Average numbers of cells bound to the surface are indicated on the basis of the assessment of the cell number, fields of view, and using 8 gold covered chips per test.
# [2] = test system: Mycobacterium smegmatis mc^2155; test: as above; details: for Capture efficiency of M. smegmatis cells: 20 μg/ml protein solution used for immobilization onto gold chip; for bacterial capture: gold surface, 20 μg/ml of RBP, Mycobacterium smegmatis mc^2155; for capture/binding of M. smegmatis cells (in words): protein immobilized on gold surface, 20 μg/ml
# Description: as §1, §2, §3
# [3] = test system: M. marinum cells; test: as above; design: species or system Mycobacterium marinum
# Description: (§4) Mycobacteria phage L5 (HER-386) was obtained from the Felix D'Herelle Reference Centre for Bacterial Viruses (Laval University, Quebec, Canada). Mycobacterium marinum ATCC number 927, M. smegmatis mc^2 155 and M. avium subsp. paratuberculosis ATCC 19851 were used in the binding studies along with Campylobacter jejuni NCTC 11168H, Salmonella enterica subsp. enterica sv. Typhimurium ATCC 19585 and E. coli K-12. E. coli DH5α (Invitrogen) and E. coli BL21(DE3) (Invitrogen) were used for cloning and recombinant protein expression procedures, respectively. All mycobacterial strains were grown in ambient atmosphere. Middlebrook 7H9 (BD Biosciences) broth supplemented with oleic acid-albumin-dextrose catalase (BD Biosciences) and mycobactin J (Allied Monitor Inc.) was used to propagate M. smegmatis at 37° C. for 48 hrs as well as MAP cells at 37° C. for 10 days. […]
# (§5) Proteins were immobilized onto cysteamine covered gold surfaces that were activated with glutaraldehyde according to the previously described protocol where RBP samples were used instead of whole phage particles. […] For fluorescence microscopy, the bacterial cells were stained with 50 μM resazurin (Sigma-Aldrich) for 20 min before exposure to the substrates covered with the immobilized proteins.
# (§6) Bacterial cell binding to the gold surface covered with the immobilized protein was assessed as described previously. […]
# [4] = test system: E. coli; test: Specificity control on protein covered gold surfaces (non-host bacteria); assay type: binding, Escherichia coli; details: E. coli K12; protein covered gold surface
# Description: (§7) The concentrations of the two RBPs of Gp6, Gp-10 and Gp31 were optimized for immobilization. […] The specificity of recognition by the RBPs was confirmed by exposing similar surfaces to E. coli EC12 and Campylobacter jejuni 11168H strains of non-host bacteria.
# as §2, with “These modified substrates were incubated in a 20 μg/ml solution of Gp10 (or Gp6) in PBS overnight at 60° C. The negative control substrate was incubated in PBS only. To block nonspecific binding of bacteria, the substrates were incubated in 1 mg/ml of bovine serum albumin (Sigma-Aldrich) and were washed twice in PBS. The protein covered substrates were exposed to 10^9 cfu/ml of mycobacterial cells in PBS for 1 hr at room temperature. The immobilized surfaces were washed in 0.05 Tween 20 (Sigma-Aldrich) before analysis.” left out
# as §6
# [5] = test system: Campylobacter jejuni 11168H; test: as above; assay type: binding; details: C. jejuni; protein covered gold surface
# Description: as §7
# as §2, with “These modified substrates were incubated in a 20 μg/ml solution of Gp10 (or Gp6) in PBS overnight at 60° C. The negative control substrate was incubated in PBS only. To block nonspecific binding of bacteria, the substrates were incubated in 1 mg/ml of bovine serum albumin (Sigma-Aldrich) and were washed twice in PBS. The protein covered substrates were exposed to 10^9 cfu/ml of mycobacterial cells in PBS for 1 hr at room temperature. The immobilized surfaces were washed in 0.05 Tween 20 (Sigma-Aldrich) before analysis.” left out
# as §6
# [6] = test system: S. Typhimurium; test: as above; assay type: binding, Salmonella enterica subsp. enterica sv. Typhimurium; details: protein covered gold surface
# Description: as §4, §5, §6
# [7] = target: T1, peptidoglycan from Bacillus subtilis (Mycobacterium phage L5, UniProt Q05285, I224V/T32I); test: Peptidoglycan binding assay
# T1 construct: pET-30a(+) vector-encoded N-terminal leader (additional residues up to the EcoRI site) (N); made in house; host or cells: E. coli BL21(DE3)
# T1 sequence (Q05285 other isoform, or with tags, fused parts or gaps T32I/I224V): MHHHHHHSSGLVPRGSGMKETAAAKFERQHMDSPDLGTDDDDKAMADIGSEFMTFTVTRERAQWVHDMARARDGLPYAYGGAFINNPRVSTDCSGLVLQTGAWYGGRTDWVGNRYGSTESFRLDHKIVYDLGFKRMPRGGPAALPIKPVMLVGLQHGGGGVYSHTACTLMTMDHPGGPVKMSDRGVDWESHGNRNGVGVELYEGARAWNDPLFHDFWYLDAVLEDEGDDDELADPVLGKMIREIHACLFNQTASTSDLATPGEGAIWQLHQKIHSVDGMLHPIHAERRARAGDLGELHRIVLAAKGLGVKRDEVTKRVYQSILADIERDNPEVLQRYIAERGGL
# Procedure: Dehydrated peptidoglycan from Bacillus subtilis (Sigma-Aldrich) was suspended in water to obtain a 10 mg/ml stock that was stored at −20° C. This stock was diluted further in water to obtain a 1 mg/ml working stock solution that was used in the experiments and was prepared fresh each time. A 0.1 mg/ml sample of Gp10 in PBS was incubated with peptidoglycan at a final concentration of 0.1 mg/ml for 30 min at room temperature with occasional stirring. Then, the peptidoglycan was separated from the protein solution by centrifugation (15 min at 18 000 g at 4° C.), an aliquot of the supernatant was mixed with the SDS-sample buffer and analyzed by SDS-PAGE.
Molecule,capture/binding of MAP cells (in words) ([1]; listed as Gp 6),capture/binding of MAP cells (in words) ([1]; listed as Gp-6),Capture efficiency of M. smegmatis cells [2],bacterial capture [2],capture/binding of M. smegmatis cells (in words) [2],capture of M. marinum cells (in words) [3],bacterial capture of non-host bacteria (in words) [4],bacterial capture of non-host bacteria (in words) [5],bacterial capture of non-host bacteria (in words) [6],capture/binding of MAP cells (in words) [1],"bacterial capture ([1]; gold surface, 20 μg/ml of RBP, MAP ATCC 19851)","peptidoglycan binding (in words) ([7]; Gp10 purified from the soluble fraction, 0.1 mg/ml Gp10, 0.1 mg/ml peptidoglycan, 30 min, SDS-PAGE of supernatant)",peptidoglycan binding (in words) ([7]; refolded sample of Gp10 after 8 M urea extraction)
"Gp6: recombinant His-tagged minor tail protein Gp6 of mycobacteriophage L5 (SEQ ID NO: 1) (protein, His6 tag) MHHHHHHSSGLVPRGSGMKETAAAKFERQHMDSPDLGTDDDDKAMADIGSEFMADLGNPLDLEMLCLVTGRDFRWTIDYPWGPGELFLELETGGEHNALHQVYVTGATGGTYTLNVNGTNTPAIDYNDVSENPQGLAGDIQDALDAAVGAGNAVVHPVSLFPAWTLNFNLNASKPLTEQLVNTINKAANDFFDTFDQLLGVDVEMTVTDTLNFKLKVTSRRSFDEVGVVTFAVDVTSQAVINFFNSVAELTGAVNTVNVDFYWNRTYDIEFTGSLGLQPIPATTADITNLAGTSKAVSVTVVEPGKKRLTIWPFTVNGETATIKVESEEADKIPNRCRWQLVHMPTGEAAGGDAKQLGRVYRQPR",did not capture any MAP cells,not showing any bacterial capture,31.3±1.5×10^−3 cells/μm^2,31.3×10^−3 /μm^2,M. smegmatis specific; also recorded: bind only M. smegmatis cells,Neither of the two proteins was able to capture; also recorded: Neither Gp6 nor Gp10 was able to serve as a capturing agent,no bacterial capture,no bacterial capture,no bacterial capture,,,,
"Gp-31: recombinant His-tagged Gp-31 protein of mycobacteriophage L5 (SEQ ID NO: 5) (protein, His tag) MHHHHHHSSGLVPRGSGMKETAAAKFERQHMDSPDLGTDDDDKAMADIGSEFVTYPTNPLEAIGADGAFEIGGGDWSFGQDYTEQAIRALFTMPAVTMENALGLLEEHLLKLPLEALQGFKDMIPDWVEGAFDTVTGAVQAIMNALQDGPLFLKFAEFQLFLQRLLNNPAEVIGEIPQTLIDGLQDALNTVNNTIQTIVDMLLQALGITPEGELIDRIFDLSDEMEWLQTAASNAATGIQDTWNKFWGALTGRVPDQDQTVAEPAERIGELAGTTSANSSAIAELQRRLDNQQNAGGVAGGDDFERLNISGWDIRYSNGSSGRGYYRADGHQLVWMDEGNQQNTATFVRTNPADEKTATDYQKMTLVVGTISGEVQTVFPPQGGSHTRLWVRVNDNAPTVGITDGVFVEIGGVSKAQIGYRRNGNDTFVGSMVDCTWGAGSIFALTAGTANGAEKFEVSKNGPVLATWSDDGVVSAMGANYRRWGWEGQARNRNLGQGTPNSVTRVTITDNDPTGAGGGAVNVGGDVVGVLPIENGGTGASTASAARTALGIDDLVEDMSDVVRGSVEGLPLIPKIWVGTEAQYTALATKDQSTLYFRTA",,,,,no significant bacterial capture,,,,,no significant bacterial capture,,,
"Gp10: recombinant His-tagged lysin Gp10 of mycobacteriophage L5 (SEQ ID NO: 3) (protein, His6 tag) MHHHHHHSSGLVPRGSGMKETAAAKFERQHMDSPDLGTDDDDKAMADIGSEFMTFTVTRERAQWVHDMARARDGLPYAYGGAFTNNPRVSTDCSGLVLQTGAWYGGRTDWVGNRYGSTESFRLDHKIVYDLGFKRMPRGGPAALPIKPVMLVGLQHGGGGVYSHTACTLMTMDHPGGPVKMSDRGVDWESHGNRNGVGVELYEGARAWNDPLFHDFWYLDAVLEDEGDDDELADPVLGKMIREIHACLFNQTASTSDLATPGEGAIWQLHQKIHSIDGMLHPIHAERRARAGDLGELHRIVLAAKGLGVKRDEVTKRVYQSILADIERDNPEVLQRYIAERGGL",,,28.7±1.18×10^−3 cells/μm^2,28.7×10^−3 /μm^2,able to bind; also recorded: specifically bind,Neither of the two proteins was able to capture; also recorded: Neither Gp6 nor Gp10 was able to serve as a capturing agent,no bacterial capture,no bacterial capture,no bacterial capture,able to bind; also recorded: specifically bind,12.3×10^−3 /μm^2,selectively remove recombinant Gp10 from the solution,retained the ability to bind peptidoglycan
